Changes are numbered by the printed parent chain. Blank lines part the entries; values can stand above or below the binder they belong to.
What was measured:
[1] = target: T1, human PTK7 on human cancer cell lines (human, UniProt Q13308 31-1070); experiment: flow cytometry, NCI-H292 cells, Ab 5 ug/mL
T1 construct: Endogenous PTK7 of human tumour cell lines; also called PTK7 on A-431, NCI-H520, NCI-N87, SK-OV-3, BT-20, HCC1954, NCI-H226, NCI-H358, HCT116, PC-3, NCI-H292, NCI-H1975 cells
T1 sequence: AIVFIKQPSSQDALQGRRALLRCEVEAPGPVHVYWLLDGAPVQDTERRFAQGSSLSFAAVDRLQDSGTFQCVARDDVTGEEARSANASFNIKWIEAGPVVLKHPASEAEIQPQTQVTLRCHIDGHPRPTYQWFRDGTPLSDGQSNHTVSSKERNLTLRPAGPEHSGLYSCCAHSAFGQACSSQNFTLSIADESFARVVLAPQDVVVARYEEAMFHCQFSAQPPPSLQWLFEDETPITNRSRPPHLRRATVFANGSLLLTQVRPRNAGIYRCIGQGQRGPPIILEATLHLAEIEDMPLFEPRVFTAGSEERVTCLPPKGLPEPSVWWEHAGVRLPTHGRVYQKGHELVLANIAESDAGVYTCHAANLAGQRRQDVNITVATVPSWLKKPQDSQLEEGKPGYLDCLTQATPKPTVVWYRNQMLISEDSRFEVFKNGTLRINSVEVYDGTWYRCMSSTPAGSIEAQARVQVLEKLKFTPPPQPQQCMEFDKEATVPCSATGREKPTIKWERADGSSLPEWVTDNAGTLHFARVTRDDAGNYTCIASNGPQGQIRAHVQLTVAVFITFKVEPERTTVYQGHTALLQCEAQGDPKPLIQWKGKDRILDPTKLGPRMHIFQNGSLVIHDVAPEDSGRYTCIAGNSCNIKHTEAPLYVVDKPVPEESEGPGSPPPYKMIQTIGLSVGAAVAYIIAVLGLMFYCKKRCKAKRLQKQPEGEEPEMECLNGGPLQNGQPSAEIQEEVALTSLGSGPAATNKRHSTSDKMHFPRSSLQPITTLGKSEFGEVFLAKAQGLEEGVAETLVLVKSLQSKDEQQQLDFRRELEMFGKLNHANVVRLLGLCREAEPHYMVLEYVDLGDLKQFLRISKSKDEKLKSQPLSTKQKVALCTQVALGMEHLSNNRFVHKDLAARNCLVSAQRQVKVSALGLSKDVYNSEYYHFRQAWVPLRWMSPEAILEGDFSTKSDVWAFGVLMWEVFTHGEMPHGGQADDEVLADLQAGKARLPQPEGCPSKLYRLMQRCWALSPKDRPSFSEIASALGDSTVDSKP
Protocol: The binding activity of anti-PTK7 antibodies to cancer cell lines was verified by flow cytometry. […] Purified anti-PTK7 antibody with a concentration of 5 μg/mL was added to each well and was incubated at 4° C. for 30 minutes. […] The cells were collected, and the mean fluorescence intensity (MFI) was determined. Human IgG1 was used as ISO control.

[2] = target: T2, His-tagged human PTK7 protein (human, UniProt Q13308 31-704); experiment: BLI Octet binning on hPTK7-His; competitor 1A7
T2 construct: Bought protein; also called hPTK7-His; not shown: His tag
T2 sequence: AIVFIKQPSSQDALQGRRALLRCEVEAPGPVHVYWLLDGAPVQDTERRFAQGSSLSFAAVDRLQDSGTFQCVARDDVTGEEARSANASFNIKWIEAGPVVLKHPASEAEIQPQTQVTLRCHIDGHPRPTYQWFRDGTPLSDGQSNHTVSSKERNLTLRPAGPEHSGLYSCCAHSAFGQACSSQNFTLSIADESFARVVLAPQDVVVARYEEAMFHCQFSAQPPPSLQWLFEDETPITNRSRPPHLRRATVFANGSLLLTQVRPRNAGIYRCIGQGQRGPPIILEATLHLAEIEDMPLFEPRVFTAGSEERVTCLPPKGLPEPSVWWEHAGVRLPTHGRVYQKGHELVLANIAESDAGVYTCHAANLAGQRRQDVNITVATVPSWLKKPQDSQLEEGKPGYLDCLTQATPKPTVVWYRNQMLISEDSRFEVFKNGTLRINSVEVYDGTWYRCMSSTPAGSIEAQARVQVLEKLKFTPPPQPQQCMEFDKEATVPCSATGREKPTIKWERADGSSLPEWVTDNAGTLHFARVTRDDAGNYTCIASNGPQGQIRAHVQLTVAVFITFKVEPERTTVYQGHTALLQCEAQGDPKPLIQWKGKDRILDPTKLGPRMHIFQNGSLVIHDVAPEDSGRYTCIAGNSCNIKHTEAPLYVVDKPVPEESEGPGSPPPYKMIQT
Protocol: (§1) Relative positions of target protein epitope between a pair of purified anti-PTK7 antibodies were analyzed by Biolayer Interferometry (BLI) using ForteBio Octet system at 30° C. A total of […] purified antibodies were used: 1A7, 1A11, 1F2, 2A5, 2D11, 2F5, 3C4 and 3E6.
(§2) 1×HBS-EP+ buffer (10 mM 4-(2-hydroxyethyl)-1-piperazineethanesulfonic acid (HEPES), 150 mM NaCl, 3 mM ethylenediaminetetraacetic acid (EDTA) and 0.05% P20, pH7.4) diluted from HBS-EP+ buffer (10×) was used as the running buffer throughout the experiment. His-tagged human PTK7 protein was captured at a flow rate of 10 μL/min, and 200 nM of antibody (Analyte 1) was injected at a flow rate of 30 μL/min to bind the ligand. Another antibody (Analyte 2) was injected under the same conditions to determine whether the binding of different antibodies interfered with each other. The binding time was 300 s for each antibody.
(§3) The binding value of each antibody was obtained using Data Analysis HT 12.0. To quantify the interference of one antibody binding to another, a binding ratio was calculated to compare each pair of antibodies. The binding ratio is defined as the binding value of the second antibody (Analyte 2), divided by the binding value of the first antibody (Analyte 1). […] In general, antibody pairs that interfere with each other have the same or overlapping epitopes.

[3] = target: T2, His-tagged human PTK7 protein; experiment: BLI Octet binning on hPTK7-His; competitor 3E6
Protocol: as §1, §2, §3

MFI [1]: 141000
binding ratio [2]: 0.71
binding ratio [3]: 0.08
B3: 3E6 (antibody, V domains shown)
VH: QVQLVESGAEVKKPGESLRISCRGSGYSFTSYWISWVRQMPGKGLEWMGRIDPSDSYTKYSPSFQGHVTISADKSISTAYLQWSSLKASDTAMYYCARRDGDYFDFDYWGQGTLVTVSS
VL: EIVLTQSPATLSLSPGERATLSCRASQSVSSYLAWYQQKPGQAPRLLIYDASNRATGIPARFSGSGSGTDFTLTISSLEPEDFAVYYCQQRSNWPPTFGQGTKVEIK
notes: also called anti-PTK7 antibody 3E6

MFI [1]: 92000
binding ratio [2]: -0.02
binding ratio [3]: 0.94
B5: 2A5 (antibody, V domains shown)
VH: QVQLVQSGGGVVQPGRSLRLSCAASGFTFSNYGMHWVRQAPGKGLEWVAVIWYDGRNKYYADSVKGRFTISRDNSKNTLYLQMNSLRAEDTAVYYCARDVAPAGSRAEYFQNWGQGTLVTVSS
VL: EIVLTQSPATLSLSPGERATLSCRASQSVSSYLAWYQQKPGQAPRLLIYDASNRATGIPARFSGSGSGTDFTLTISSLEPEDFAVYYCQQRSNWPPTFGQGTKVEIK
notes: also called anti-PTK7 antibody 2A5

MFI [1]: 44500
binding ratio [2]: 0.12
binding ratio [3]: 1.02
B6: 2F5 (antibody, V domains shown)
VH: B5 VH with Q6E, A23V, V50I, W52Y, R56S, P102A, F110L, Q111H, N112H
VL: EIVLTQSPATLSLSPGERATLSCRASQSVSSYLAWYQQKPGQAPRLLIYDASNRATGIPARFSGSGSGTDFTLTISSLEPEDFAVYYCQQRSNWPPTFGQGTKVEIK
notes: also called anti-PTK7 antibody 2F5

MFI [1]: 134000
binding ratio [2]: 0.17
binding ratio [3]: 1.18
B7: 2D11 (antibody, V domains shown)
VH: B5 VH with Q6E, N31S, W52F, R56S, A92S, P102A, A103P
VL: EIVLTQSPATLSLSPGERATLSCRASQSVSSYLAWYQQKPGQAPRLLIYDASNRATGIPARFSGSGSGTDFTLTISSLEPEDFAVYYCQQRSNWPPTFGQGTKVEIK
notes: also called anti-PTK7 antibody 2D11

The next lines start with the binder.

B1: 1F2 (antibody, V domains shown)
VH: QVQLVQSGGGLVQPGGSLRLSCAASGFTFSRYEMNWVRQAPGKGLEWVSYINSIGSAINYADSVKGRFTISRDNAKNSLYLQMRSLRAEDTAVYYCVREDNWNPGYWGQGTLVTVSS
VL: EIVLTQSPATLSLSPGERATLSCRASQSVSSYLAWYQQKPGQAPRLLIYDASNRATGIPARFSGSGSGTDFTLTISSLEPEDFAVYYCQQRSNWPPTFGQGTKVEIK
notes: also called anti-PTK7 antibody 1F2
MFI [1]: 69300
binding ratio [2]: 0.64
binding ratio [3]: 0.75

B2: 3C4 (antibody, V domains shown)
VH: B3 VH with V5E, E6Q, G8R, R23K, K59N, S61N, D102S
VL: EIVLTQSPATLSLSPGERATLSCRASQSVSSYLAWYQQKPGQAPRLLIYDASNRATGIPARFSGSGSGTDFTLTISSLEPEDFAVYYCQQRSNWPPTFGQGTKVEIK
notes: also called anti-PTK7 antibody 3C4
MFI [1]: 92400
binding ratio [2]: 0.87
binding ratio [3]: 0.17

B4: 1A7 (antibody, human IgG1, V domains shown)
VH: B5 VH with Q6E, W52Y, R56S, Y59F, N84S, A103P, Q111H, N112H
VL: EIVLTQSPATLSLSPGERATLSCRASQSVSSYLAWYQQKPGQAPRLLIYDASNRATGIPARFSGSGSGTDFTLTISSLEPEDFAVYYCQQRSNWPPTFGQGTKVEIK
notes: also called anti-PTK7 antibody 1A7
MFI [1]: 43500
binding ratio [2]: 0.08
binding ratio [3]: 1.05

B8: 1A11 (antibody, V domains shown)
VH: QVQLVQSGPGLVKPSETLSLTCTVSGGSINSYYWNWIRQPPGKGLEWIGYIYYSGSTNYNPSLKSRVTISVDTSKNQFSLKLSSVTAADTAVYYCARDPHDYIRGHFDLWGRGTLFTVSS
VL: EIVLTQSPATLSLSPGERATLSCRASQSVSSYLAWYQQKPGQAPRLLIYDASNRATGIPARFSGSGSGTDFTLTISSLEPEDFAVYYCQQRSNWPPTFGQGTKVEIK
notes: also called anti-PTK7 antibody 1A11
MFI [1]: 125000
binding ratio [2]: 0.71
binding ratio [3]: 0.94
